The text below walks through data of patent EP4261227A1.

This experiment deals with OXA-48-like carbapenemase (Klebsiella pneumoniae) (UniProt Q6XEC0). Briefly: indirect ELISA, plate coated with 0.2 ug/mL OXA-48-like carbapenemase, purified antibody in doubling dilutions from 1:1000. In general terms: ELISA stands for enzyme-linked immunosorbent assay.
Chain of UniProt Q6XEC0 (Q6XEC0 23-265 limits assumed): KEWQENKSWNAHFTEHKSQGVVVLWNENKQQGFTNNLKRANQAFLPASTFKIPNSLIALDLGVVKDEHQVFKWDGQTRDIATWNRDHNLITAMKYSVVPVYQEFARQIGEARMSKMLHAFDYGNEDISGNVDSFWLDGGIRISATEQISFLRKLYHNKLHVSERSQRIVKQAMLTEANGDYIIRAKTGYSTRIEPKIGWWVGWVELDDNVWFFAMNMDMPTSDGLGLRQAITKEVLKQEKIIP

B1: anti-OXA-48-like carbapenemase mouse mAb IB5 (antibody, V domains shown)
VH: EVMLVESGGGLVKPGGSLKLSCAASGFTFSTYAMSWVRLTPEKRLEWVATISSGGSYTSYPDSVKGRFTISRDNAKNTLYLQMSSLRSEDTAMYYCARRPEYAMDYWGQGTSVTVSS
VL: LVQHQPVSSYLAASPGETVTINCRASKSISKYLAWYQEKPGKTNKLLIYSGSTFQSGFPSGFSGSGSGTDFTLTVSSLEPEDFAIYYCQQHNEYPYVTFGGGTKLEIKR
B1: the titer (dilution factor (1:x) from 1 mg/mL) is 1.28e+06.
